The target in this assay is high-affinity TrkA receptor on the TF-1 cell surface (UniProt P04629). Briefly: cell-based or functional assay.
Sequence of UniProt P04629 (P04629 33-796 limits assumed): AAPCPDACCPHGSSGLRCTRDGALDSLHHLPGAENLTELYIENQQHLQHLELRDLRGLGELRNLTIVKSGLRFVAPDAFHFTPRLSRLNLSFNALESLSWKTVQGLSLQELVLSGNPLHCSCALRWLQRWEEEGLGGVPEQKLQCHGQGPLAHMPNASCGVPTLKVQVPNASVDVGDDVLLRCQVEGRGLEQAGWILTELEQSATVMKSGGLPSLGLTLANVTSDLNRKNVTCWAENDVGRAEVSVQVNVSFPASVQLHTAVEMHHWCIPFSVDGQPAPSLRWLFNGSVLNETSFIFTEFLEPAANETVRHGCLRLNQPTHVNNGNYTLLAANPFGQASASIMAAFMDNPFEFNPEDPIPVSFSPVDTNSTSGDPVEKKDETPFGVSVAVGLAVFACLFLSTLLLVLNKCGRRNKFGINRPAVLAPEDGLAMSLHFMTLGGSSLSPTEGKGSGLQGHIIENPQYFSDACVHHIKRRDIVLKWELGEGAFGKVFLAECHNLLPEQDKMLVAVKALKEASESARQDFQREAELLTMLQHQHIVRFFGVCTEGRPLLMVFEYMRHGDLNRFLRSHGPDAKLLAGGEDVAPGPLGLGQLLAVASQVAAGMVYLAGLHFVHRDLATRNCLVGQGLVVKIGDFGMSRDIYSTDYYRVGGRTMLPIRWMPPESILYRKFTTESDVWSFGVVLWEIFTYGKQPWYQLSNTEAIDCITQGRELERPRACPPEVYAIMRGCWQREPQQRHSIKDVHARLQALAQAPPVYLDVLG

As to “rhNGF-CTP (long-lasting recombinant human nerve growth factor; mature NGF-CTP) (ligand)”, the specific activity in the TF-1 cell proliferation assay (MTT) worked out at 1.2e+06 AU mg^-1.

For the origin of these results see US20180236031A1.
